{
  "source": "paper PMC2826804",
  "about": "(Journal of molecular biology, 2009)",
  "proteins": {"B1": {"name": "GST-LARP6 fusion protein (La ribonucleoprotein domain family, member 6) (natural protein, human, UniProt Q9BRS8 1-491, looked up)", "chain": "MAQSGGEARPGPKTAVQIRVAIQEAEDVDELEDEEEGAETRGAGDPARYLSPGWGSASEEEPSRGHSGTTASGGENEREDLEQEWKPPDEELIKKLVDQIEFYFSDENLEKDAFLLKHVRRNKLGYVSVKLLTSFKKVKHLTRDWRTTAHALKYSVVLELNEDHRKVRRTTPVPLFPNENLPSKMLLVYDLYLSPKLWALATPQKNGRVQEKVMEHLLKLFGTFGVISSVRILKPGRELPPDIRRISSRYSQVGTQECAIVEFEEVEAAIKAHEFMITESQGKENMKAVLIGMKPPKKKPAKDKNHDEEPTASIHLNKSLNKRVEELQYMGDESSANSSSDPESNPTSPMAGRRHAATNKLSPSGHQNLFLSPNASPCTSPWSSPLAQRKGVSRKSPLAEEGRLNCSTSPEIFRKCMDYSSDSSVTPSGSPWVRRRRQAEMGTQEKSPGTSPLLSRKMQTADGLPVGVLRLPRGPDNTRGFHGHERSRACV"}},
  "molecular_target": "the molecule itself",
  "test": "native gel or EMSA",
  "data": [
    {"protein": "B1", "values": [
      {"measurement": "binding result", "value": "binds"}
    ]}
  ]
}
